Paper PMC10665551

What was measured:
[1] = target: Pichia pastoris recombinant Oo-ASP-1 (Ostertagia ostertagi); test: reducing and non-reducing SDS-PAGE + LC-MS of tryptic peptides; denaturing SDS-PAGE with and without β-mercaptoethanol; 1D and 2D LC-MS of reduced (DTT/IAA) and non-reduced tryptic digests to map intra- and intermolecular disulphide bridges; disulphide-linked dimer
[2] = target: native Oo-ASP-1 (activation-associated secreted protein 1 of Ostertagia ostertagi) (Ostertagia ostertagi); test: as above

Row | Substance | stoichiometry N [1] | stoichiometry N [2]
1 | Pichia pastoris recombinant Oo-ASP-1 (natural protein) | 2 | 
2 | native Oo-ASP-1 (activation-associated secreted protein 1 of Ostertagia ostertagi) (natural protein) |  | 2
